Assays:
Assay in all cases: IEDB peptide-MHC binding, purified MHC/direct/fluorescence; filed as Kd, often an IC50 or EC50 that approximates it; ≥ and ≤ were set here for values at or beyond the usual limits of such assays
Details in all cases: source organism: Rickettsia bellii OSU 85-389
HLA-A*02:19 = target: HLA-A*02:19
HLA-B*46:01 = target: HLA-B*46:01
HLA-A*02:03 = target: HLA-A*02:03
HLA-A*26:01 = target: HLA-A*26:01
HLA-A*02:11 = target: HLA-A*02:11
HLA-B*57:01 = target: HLA-B*57:01
HLA-A*29:02 = target: HLA-A*29:02
HLA-B*39:01 = target: HLA-B*39:01
HLA-A*02:01 = target: HLA-A*02:01

Measured: Kd

EDFEIFYNL
≥ 20 µM: all assays above

Source: the Immune Epitope Database (IEDB)
